{
  "source": "paper PMC3212559",
  "about": "“Large-Scale Protein-Protein Interaction Analysis in Arabidopsis Mesophyll Protoplasts by Split Firefly Luciferase Complementation” (PLoS ONE, 2011)",
  "biological_target": "T1, C-terminal domain (CTD) of ARF5-FLucC (Arabidopsis, UniProt P93024 793-902)",
  "T1 construct": "In the ARF-ARF tests the same CTD stood both as ARFCTD-FLucC and as ARFCTD-FLucN; one molecule for both; also called ARF5CTD-FLucC; auxin response factor 5; source: Arabidopsis mesophyll protoplasts, transfected, in living cells (SFLC) and in lysate (co-IP); not shown: FLucC (firefly luciferase aa 394-550)",
  "T1 sequence (looked up)": "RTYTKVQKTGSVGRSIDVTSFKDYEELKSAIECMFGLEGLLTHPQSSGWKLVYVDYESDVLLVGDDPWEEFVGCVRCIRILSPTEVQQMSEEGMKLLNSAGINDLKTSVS",
  "assay": "split reporter (BiFC, NanoBiT); SFLC in living Arabidopsis mesophyll protoplasts: Aux/IAA-FLucN or MYB30-FLucN co-expressed with ARFCTD-FLucC or Aux/IAA-FLucC for 6 hr; 10 µg of each construct, 2×10^4 cells, 96-well plate, D-luciferin; relative activity standardised against ARF5CTD-FLucC + IAA28-FLucN",
  "conditions": "partners not purified",
  "data": [
    {"binder": "IAA28-FLucN (natural protein, Arabidopsis, UniProt Q9XFM0 1-175, looked up, Arabidopsis transcription repressor IAA28; also called Aux/IAA-FLucN; source: Arabidopsis mesophyll protoplasts, transfected, in living cells; not shown: FLucN (firefly luciferase aa 1-398)) MEEEKRLELRLAPPCHQFTSNNNINGSKQKSSTKETSFLSNNRVEVAPVVGWPPVRSSRRNLTAQLKEEMKKKESDEEKELYVKINMEGVPIGRKVNLSAYNNYQQLSHAVDQLFSKKDSWDLNRQYTLVYEDTEGDKVLVGDVPWEMFVSTVKRLHVLKTSHAFSLSPRKHGKE", "values": [
      {"measurement": "restored luciferase activity, fold over the negative control MYB30-FLucN + ARF5CTD-FLucC", "value": "~350", "unit": "fold"}
    ]}
  ]
}
